Assay results reported in CN114835815A (NINGBO SAIPO BIOTECHNOLOGY CO LTD, dated 2022).
Positions count from the first letter of the chain named.

B1: 鼠单克隆抗体36A2 (antibody, V domains shown)
VH: EIQLQQSGPELVKPGASVKVSCKASGYSFTDYNIYWVKQGHGESLEWIGYIDPYNGDTDYNQKFKDRSTLTVDKSSNTAFMHLNSLTSEDSAVYYCARSRNYYGSSFAYWGQGTLVTVSA
VL: DVLMTQTPLSLPVSLGDQASISCRSSQAIVHGNGNTYLEWSLQKPVHSPKLLIFKVSNRFSGVPDRFSGSGSGTDFTLKISRVEAEDLGVYYCFQGSHVPPTFGGGTKLEIK
B2: 鼠单克隆抗体3D9 (antibody, V domains shown)
VH: QVQLQQSGAELAKPGAAVKMSCKASGYTFTSHWMHWVNQRPGQGLEWIGYINPTTGYSEYNQKFKDKATMTADKSSSTAYMHLRSLTSEDSAVYYCARGAYYYGSSRFDYWGQGTTLTVSS
VL: B1 VL with A28T, G32T, S41Y, V46G, H47Q, F54Y, P101W
notes: Mouse monoclonal antibody from a hybridoma; also called 第一单抗

Experiments:
[1] = target: 人源PGI蛋白 (human pepsinogen I from human gastric mucosa, Lee Biosolutions, cat. 440-50) (human) (UniProt P0DJD8); assay: indirect ELISA, human-derived PGI coated at 2 ug/mL, culture supernatant diluted 50-fold
[2] = target: T1, 重组PGI蛋白 (recombinant pepsinogen I protein, expressed in HEK293 cells) (Homo sapiens (Human), UniProt P0DJD9 16-388, limits assumed); assay: indirect ELISA screen of hybridoma supernatants on coated recombinant PGI
T1 construct: Immunogen and ELISA coating antigen; also called PGI重组蛋白; 重组蛋白
T1 sequence (P0DJD9 other isoform, or with tags, fused parts or gaps limits assumed): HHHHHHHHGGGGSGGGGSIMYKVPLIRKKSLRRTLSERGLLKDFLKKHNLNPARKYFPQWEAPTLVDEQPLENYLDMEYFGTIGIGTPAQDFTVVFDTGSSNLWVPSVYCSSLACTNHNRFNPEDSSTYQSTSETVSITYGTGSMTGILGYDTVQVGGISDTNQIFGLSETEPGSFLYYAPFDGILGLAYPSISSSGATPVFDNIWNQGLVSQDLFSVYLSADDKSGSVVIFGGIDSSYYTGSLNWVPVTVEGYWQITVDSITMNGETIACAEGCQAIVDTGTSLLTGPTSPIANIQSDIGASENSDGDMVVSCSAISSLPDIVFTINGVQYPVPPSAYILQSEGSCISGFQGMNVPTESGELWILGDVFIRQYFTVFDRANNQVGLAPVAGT

UniProt P0DJD8, sequence (P0DJD8 16-388): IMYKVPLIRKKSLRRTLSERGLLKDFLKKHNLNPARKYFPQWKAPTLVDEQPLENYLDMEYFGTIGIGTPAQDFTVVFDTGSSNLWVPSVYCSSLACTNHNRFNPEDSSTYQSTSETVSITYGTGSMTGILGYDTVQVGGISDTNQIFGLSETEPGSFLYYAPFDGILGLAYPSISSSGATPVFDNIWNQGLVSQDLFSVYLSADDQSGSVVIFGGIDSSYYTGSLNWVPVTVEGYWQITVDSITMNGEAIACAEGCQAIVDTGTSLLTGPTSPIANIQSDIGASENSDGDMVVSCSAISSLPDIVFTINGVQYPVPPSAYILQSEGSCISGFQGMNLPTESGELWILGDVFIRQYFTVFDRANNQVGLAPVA

| Binder | OD450 [1] [OD450] | binding result [2] |
| --- | --- | --- |
| B1 | 2.04 |  |
| B2 | 1.87 | binds |
